One assay deals with CD3 protein. The assay can be described thus: BLI (ForteBio), biotinylated CD3 protein on SA biosensors, antibody at 500 nM. How it is done:
CD3 protein was first biotinylated using EZ-Link NHS-PEG12-Biotin, and the biotinylated protein was immobilized on SA biosensors. The biosensors were then equilibrated in 1× Kinetics Buffer, followed by incubation with the humanized bispecific antibody solution to allow binding. The concentration of the humanized bispecific antibody solution was 500 nM. Afterward, the biosensors were placed in 1× Kinetics Buffer for dissociation. Data were analyzed using Fortebio Data Analysis 8.0 software to calculate the affinity constant values.

The target in assay [1] is T1, CD26 on cells (786-0, OS-RC-2, UT16, NCI-H226 tumor cells; PBMCs) (human, UniProt P27487 1-766).
T1 construct: whole, on cells; The background says that CD26 commonly exists as a homodimer; also called CD26 target on tumor cells; CD26 on PBMCs
The assay can be described thus: flow cytometry, PBMCs in a mixed system with 786-0 cells, antibody at 0.3 ug/mL.

T1 sequence (P27487 whole entry): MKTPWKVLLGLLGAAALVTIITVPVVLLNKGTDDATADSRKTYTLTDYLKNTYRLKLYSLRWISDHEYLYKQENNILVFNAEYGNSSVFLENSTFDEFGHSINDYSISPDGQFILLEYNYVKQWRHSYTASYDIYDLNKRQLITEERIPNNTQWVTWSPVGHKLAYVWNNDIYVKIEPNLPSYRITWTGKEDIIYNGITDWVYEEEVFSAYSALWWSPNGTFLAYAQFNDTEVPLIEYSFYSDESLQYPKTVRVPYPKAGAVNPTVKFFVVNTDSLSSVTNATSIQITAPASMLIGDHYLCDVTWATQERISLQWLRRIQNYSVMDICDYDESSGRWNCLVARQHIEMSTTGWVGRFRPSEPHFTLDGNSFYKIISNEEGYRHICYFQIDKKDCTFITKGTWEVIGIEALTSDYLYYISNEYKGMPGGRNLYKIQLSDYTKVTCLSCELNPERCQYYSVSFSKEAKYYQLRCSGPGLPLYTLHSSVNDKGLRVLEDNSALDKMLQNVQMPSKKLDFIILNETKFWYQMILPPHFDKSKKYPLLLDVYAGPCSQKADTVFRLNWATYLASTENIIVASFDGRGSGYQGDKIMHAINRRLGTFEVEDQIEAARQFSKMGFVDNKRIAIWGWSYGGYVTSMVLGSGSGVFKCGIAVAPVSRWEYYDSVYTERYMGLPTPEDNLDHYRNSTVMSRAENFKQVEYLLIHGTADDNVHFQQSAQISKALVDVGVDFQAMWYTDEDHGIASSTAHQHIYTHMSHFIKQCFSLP

B1: humanized CD26-CD3 BiTE bispecific antibody 19G300 (bispecific antibody)
scFv: DIQMTQSPSSLSASPGDRVTISCRASQDIGNFLTWYQQKPGQAPKLLIYYRSRLHSGVPSRFSGSGSGTDYTLTISSLEPEDFATYYCQQDNTLPWTFGQGTKVEIKGGGGSGGGGSGGGGSEVQLVESGGGLVQPGGSLRLSCAASGFTFTNYYMSWVRQAPGKGLEWVAFIRDKANGYTTEYSASVKGRFTISRDNSKNTLYLQMNSLRAEDTAVYYCARVLRYLGYNFDYWGQGTLVTVSSGGGGSDVQLVQSGAEVKKPGASVKVSCKASGYTFTRYTMHWVRQAPGQGLEWIGYINPSRGYTNYADSVKGRFTITTDKSTSTAYMELSSLRSEDTATYYCARYYDDHYCLDYWGQGTTVTVSSGGGGSGGGGSGGGGSDIVLTQSPATLSLSPGERATLSCRASQSVSYMNWYQQKPGKAPKRWIYDTSKVASGVPARFSGSGSGTDYSLTINSLEAEDAATYYCQQWSSNPLTFGGGTKVEIK
notes: Single chain of about 55 kDa; also called humanized bispecific antibody 19G300
On to B1, for which, in the assay with CD3 protein, the affinity, expressed as Kd, was 1.61 nM; the koff (usually the first-order rate constant of dissociation) was 0.000137 s⁻¹; the kon (commonly a measure of how fast the partners come together) is 84800 M⁻¹ s⁻¹.

B2: full-length humanized anti-CD26 antibody 21G428-429 (antibody, human IgG1, kappa, V domains shown)
VH: EVQLVQSGAELVKPGASVKLSCAASGFNIKDTYIYWVRQAPGQGLEWVGRIEPMNGNTKYDPKFQGRFTMTANTSKNTAYLQLSSLRSEDTAVYYCSRGGWLLLYVMDYWGQGTLVTVSS
VL: DIVMTQSPSSLSVTPGERVSISCRSDKSLLHSNGNTYLYWFLQKPGQSPQVLIYRMSNLASGVPDRFSGSGSGTDFTLTISRVEAEDVGVYYCFQQLEYPYTFGQGTKLEIKR
notes: Derived from mouse antibody No. 62; About 150 kDa
Turning to B2, the binding result in assay [1] was “binds”.

For the origin of these results see patent US20260217852A1 (ZONHON BIOPHARMA INSTITUTE, published 2026).
